Reference: patent US20240287161A1

Legend:
[1] = target: SARS-CoV-2 spike receptor-binding domain (RBD, amino acids 322 to 536), histidine-tagged (Example 2) (SARS-CoV-2) (UniProt P0DTC2)
[2] = target: SARS-CoV2 S protein on VSV pseudovirus (SARS-CoV-2) (UniProt P0DTC2)
[3] = target: Authentic CoV2 (SARS-CoV-2 JPN/TY/WK-521)

| Substance | EC50 [1] [µg/mL] | IC50, pseudovirus neutralization [2] [ng/mL] | IC50, authentic virus neutralization [3] [ng/mL] |
| --- | --- | --- | --- |
| REGN10933 (antibody) | 0.194 | 8.9 | 38.1 |
| REGN10987 (antibody) | 3.3 | 41.6 | 134 |
